The values that follow come from patent publication US20140072650A1, “GELATIN EXTRACT MADE FROM SKATE RAY SKIN AND ANTIHYPERTENSIVE COMPOSITION HAVING PEPTIDE ISOLATED FROM EXTRACT AS ACTIVE INGREDIENT” (PUKYONG NATIONAL UNIVERSITY INDUSTRY-UNIVERSITY CO, priority 2012, published 2014).

For the test, the target named is angiotensin converting enzyme (Homo sapiens, UniProt P12821). Nature of the test: ACE inhibition activity measurement (IC50). The format is biochemical. To be noted: FIG. 6; for ACE inhibition: isolated peptides. How it is done:
The inventors of the present invention measured the ACE inhibition activities based on the process concentration with respect to the second hydrolysate containing a lower molecular weight among the gelatin extracts of the skins of a skate ray obtained from the above embodiments so as to develop a new hypertension therapy medicine which could be quickly absorbed by a human body and has a good effect, and the measurements were conducted in the method of measuring IC50 concentration which could inhibit 50% of the angiotensin converting enzyme in accordance with the angiotensin converting enzyme inhibition measurement method.
The inventors of the present invention isolated two active peptides by way of FPLC (Fast Protein Liquid Chromatography) with respect to the second hydrolysate so as to isolate the functional peptides having an antihypertensive activity contained in the second hydrolysate of the gelatin extract obtained from the skins of a skate ray. As a result of the analysis on the base sequence of the peptide, it was confirmed that the peptide had the following base sequence. In addition, the ACE inhibition (IC50) was checked in the earlier explained method so as to check the antihypertensive activity with respect to the peptides.

Chain of angiotensin converting enzyme (P12821 30-1306, species assumed): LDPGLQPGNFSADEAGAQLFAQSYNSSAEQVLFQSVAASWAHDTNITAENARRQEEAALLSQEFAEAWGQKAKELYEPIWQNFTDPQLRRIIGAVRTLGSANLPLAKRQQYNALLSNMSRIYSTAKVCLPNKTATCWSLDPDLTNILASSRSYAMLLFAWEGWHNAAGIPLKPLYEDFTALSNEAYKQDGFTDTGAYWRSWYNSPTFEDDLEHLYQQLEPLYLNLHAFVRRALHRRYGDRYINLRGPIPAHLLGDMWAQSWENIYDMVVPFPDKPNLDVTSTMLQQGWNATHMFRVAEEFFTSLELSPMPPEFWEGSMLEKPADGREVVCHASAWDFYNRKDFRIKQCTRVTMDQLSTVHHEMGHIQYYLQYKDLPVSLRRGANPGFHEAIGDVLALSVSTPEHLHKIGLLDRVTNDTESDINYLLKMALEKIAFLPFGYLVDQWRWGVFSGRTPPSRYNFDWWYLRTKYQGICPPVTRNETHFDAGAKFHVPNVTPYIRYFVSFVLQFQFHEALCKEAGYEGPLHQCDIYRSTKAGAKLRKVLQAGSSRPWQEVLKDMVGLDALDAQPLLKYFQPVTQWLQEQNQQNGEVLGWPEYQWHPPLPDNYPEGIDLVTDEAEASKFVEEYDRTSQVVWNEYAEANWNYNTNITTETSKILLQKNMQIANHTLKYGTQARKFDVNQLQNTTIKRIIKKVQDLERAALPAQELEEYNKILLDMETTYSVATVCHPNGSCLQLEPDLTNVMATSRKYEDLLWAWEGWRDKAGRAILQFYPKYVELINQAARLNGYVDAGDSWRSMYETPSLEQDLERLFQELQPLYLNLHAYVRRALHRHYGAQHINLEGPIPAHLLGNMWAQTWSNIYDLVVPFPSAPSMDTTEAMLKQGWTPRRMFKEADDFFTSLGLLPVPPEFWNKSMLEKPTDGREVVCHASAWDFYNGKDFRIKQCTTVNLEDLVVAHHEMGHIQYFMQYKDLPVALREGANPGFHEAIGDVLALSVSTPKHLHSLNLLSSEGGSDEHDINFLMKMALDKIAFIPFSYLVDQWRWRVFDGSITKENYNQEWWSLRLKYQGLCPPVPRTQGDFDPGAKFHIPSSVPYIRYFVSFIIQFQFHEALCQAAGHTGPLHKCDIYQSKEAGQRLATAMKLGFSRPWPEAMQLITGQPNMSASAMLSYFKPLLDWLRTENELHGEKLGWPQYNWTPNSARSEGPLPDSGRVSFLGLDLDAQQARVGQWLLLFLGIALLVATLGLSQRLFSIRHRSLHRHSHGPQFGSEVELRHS

Consider “MVGSAPGVL [SPI, peptide (829 Da) isolated by FPLC from the second hydrolysate]”, for which the “antihypertensive activity (ACE inhibition) compared with the other peptide” value was “higher antihypertensive activity as compared to the SP2” and the ACE inhibition result is on record as “have the ACE inhibition”. On to “LGPLGHQ [SP2, peptide (720 Da) isolated by FPLC from the second hydrolysate]”, for which the ACE inhibition entry was “have the ACE inhibition”.
